According to doi:10.1101/2024.09.06.611148 (bioRxiv, 2024):

Target: Alexa-647-labelled actin (UniProt P68135 1-377, Alexa-647 (Monolith NT Protein Labelling Kit RED-NHS))
Assay: MST

- Kd: 330 ± 80 nM
B1: recombinant HYC2 (GST-HYC2 or HYC2-6XHis) (natural protein)
chain: MDFSVKPSGGSPSPSSSTSSSTPHRFKSVTTPTATAAAVSGFSPSAAADRDPMHSWWESVSKQRSRILSLSSLLSGDSHFEDGDVTPISSLADSDRPALSLLSSRAAYSLISNSLCNPASGSGSDPLCQWLYETYLSSDPPLRLVVLSFFPLLVGMYLSRIHSSDSTSLPSLSGFEAVLLAIYAAEVKARAGKPILVHIPDLSQPSLYHTPRNGVDKSRDSNPTASVGVLSPQLEPQIAVKSTKRASIVGVGLQCYFKEISQMPAWSKLEFCKFSASWAGQDCDCKEKIDEDEDKVLALTNGFGDSSSFNGSSGRSLEIEEDFDRLAIRENEEQLSSNGGGGGVGRGVRIPLPWELFQPTLRILGHCLLSPLNTEDVKDAASNAVRSLYARASHDLNPQAILATRSLVNLDTSARTSGKTVAAETVNGSSNVNTPSKAKKPEILLASK
